Experimental data as given in article doi:10.1101/2024.11.03.621705 (bioRxiv, 2024).

Biological target: the molecule itself
Assay: cryo-EM structure

B1: mouse TRPC5 with a 210-amino-acid C-terminal truncation, with N-terminal 3xFlag tag and MBP (recombinant plasmid FMC5) (domain or fragment, UniProt Q9QX29 1-765, looked up)
chain: MAQLYYKKVNYSPYRDRIPLQIVRAETELSAEEKAFLSAVEKGDYATVKQALQEAEIYYNVNINCMDPLGRSALLIAIENENLEIMELLLNHSVYVGDALLYAIRKEVVGAVELLLSYRKPSGEKQVPTLMMDTQFSEFTPDITPIMLAAHTNNYEIIKLLVQKRVTIPRPHQIRCNCVECVSSSEVDSLRHSRSRLNIYKALASPSLIALSSEDPILTAFRLGWELKELSKVENEFKAEYEELSQQCKLFAKDLLDQARSSRELEIILNHRDDHSEELDPQKYHDLAKLKVAIKYHQKEFVAQPNCQQLLATLWYDGFPGWRRKHWVVKLLTCMTIGFLFPMLSIAYLISPRSNLGLFIKKPFIKFICHTASYLTFLFMLLLASQHIVRTDLHVQGPPPTVVEWMILPWVLGFIWGEIKEMWDGGFTEYIHDWWNLMDFAMNSLYLATISLKIVAYVKYNGSRPREEWEMWHPTLIAEALFAISNILSSLRLISLFTANSHLGPLQISLGRMLLDILKFLFIYCLVLLAFANGLNQLYFYYETRAIDEPNNCKGIRCEKQNNAFSTLFETLQSLFWSVFGLLNLYVTNVKARHEFTEFVGATMFGTYNVISLVVLLNMLIAMMNNSYQLIADHADIEWKFARTKLWMSYFDEGGTLPPPFNIIPSPKSFLYLGNWFNNTFCPKRDPDGRRRRHNLRSFTERHADSLIQNQHYQEVIRNLVKRYVAAMIRNSKTNEGLTEENFKELKQDISSFRYEVLDLLGNRK
  binding result: binds
